Kd data for one substance are collected here from PMC2883168.

In this assay the target is human FGFR1-IIIb (human). Put plainly: SPR.
Sequence of human FGFR1-IIIb (human) (P11362 22-822): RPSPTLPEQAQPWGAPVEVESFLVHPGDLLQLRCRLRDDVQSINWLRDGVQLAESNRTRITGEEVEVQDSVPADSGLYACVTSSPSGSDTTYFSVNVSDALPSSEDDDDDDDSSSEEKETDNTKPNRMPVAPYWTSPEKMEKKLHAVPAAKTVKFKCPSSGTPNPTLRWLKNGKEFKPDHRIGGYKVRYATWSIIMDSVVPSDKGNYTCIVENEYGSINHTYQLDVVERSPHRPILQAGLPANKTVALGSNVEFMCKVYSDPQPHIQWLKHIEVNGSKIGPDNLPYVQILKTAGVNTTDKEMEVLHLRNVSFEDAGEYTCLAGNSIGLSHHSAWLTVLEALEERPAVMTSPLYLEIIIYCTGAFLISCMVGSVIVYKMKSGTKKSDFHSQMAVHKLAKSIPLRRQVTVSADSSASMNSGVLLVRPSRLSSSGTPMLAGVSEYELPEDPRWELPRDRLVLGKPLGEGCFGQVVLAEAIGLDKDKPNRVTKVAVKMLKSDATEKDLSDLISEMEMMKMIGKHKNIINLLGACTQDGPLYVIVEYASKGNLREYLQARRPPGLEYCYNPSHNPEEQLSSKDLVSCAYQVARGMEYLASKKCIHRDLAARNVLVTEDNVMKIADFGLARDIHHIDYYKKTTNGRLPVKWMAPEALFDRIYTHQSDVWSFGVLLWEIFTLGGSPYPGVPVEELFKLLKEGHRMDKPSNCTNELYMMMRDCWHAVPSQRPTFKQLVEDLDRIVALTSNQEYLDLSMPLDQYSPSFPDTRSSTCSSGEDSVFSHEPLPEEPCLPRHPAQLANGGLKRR

One may read the Kd as the equilibrium constant for the complex coming apart. Low values mean higher affinity, high ones lower affinity. Turning to “native, recombinant FGF-2 (from UniProt P09038 1-288) (ligand)”, the Kd was found to be 952 nM.
